{"source": "the supplement of paper PMC10065799", "about": "“High-throughput profiling of sequence recognition by tyrosine kinases and SH2 domains using bacterial peptide display” (eLife, 2023);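 also: 11-residue human phosphosite peptides and single-mutation variants displayed on the E. coli surface, counted by deep sequencing, each peptide's frequency after selection divided by its frequency in the unselected input library; frequency after pTyr selection over input frequency; kinase dosed for 20-30% of maximal phosphorylation in three min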"}
{"target": "Fes (UniProt P07332)", "sequence (P07332 whole entry, looked up)": "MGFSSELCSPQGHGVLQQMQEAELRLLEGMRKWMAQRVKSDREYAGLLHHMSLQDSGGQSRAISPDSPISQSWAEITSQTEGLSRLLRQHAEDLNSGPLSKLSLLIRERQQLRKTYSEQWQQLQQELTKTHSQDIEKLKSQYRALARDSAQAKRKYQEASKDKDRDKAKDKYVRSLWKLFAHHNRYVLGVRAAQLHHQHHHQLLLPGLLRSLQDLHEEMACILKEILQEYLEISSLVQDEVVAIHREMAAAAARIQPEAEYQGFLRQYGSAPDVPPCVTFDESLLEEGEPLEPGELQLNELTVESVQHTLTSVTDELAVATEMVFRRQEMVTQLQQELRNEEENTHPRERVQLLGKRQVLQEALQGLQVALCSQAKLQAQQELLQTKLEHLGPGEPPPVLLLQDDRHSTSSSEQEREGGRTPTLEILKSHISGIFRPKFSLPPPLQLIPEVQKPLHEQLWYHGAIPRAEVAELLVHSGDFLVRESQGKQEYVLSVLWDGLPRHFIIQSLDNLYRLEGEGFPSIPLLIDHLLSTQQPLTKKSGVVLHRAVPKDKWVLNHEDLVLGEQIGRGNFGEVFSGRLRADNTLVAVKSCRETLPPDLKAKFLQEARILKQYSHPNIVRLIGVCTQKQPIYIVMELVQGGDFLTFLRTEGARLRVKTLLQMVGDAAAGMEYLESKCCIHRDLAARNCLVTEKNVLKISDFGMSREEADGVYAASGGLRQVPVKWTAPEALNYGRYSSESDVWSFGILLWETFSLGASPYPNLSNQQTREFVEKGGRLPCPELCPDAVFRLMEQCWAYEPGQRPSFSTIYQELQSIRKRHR", "assay": "phosphorylation enrichment, bacterial display (enrichment ratio); higher = better substrate or ligand; peptides without Tyr show the background"}
{"sequence": "EDDIIYTQDFT [STK11_Y362]", "phosphorylation enrichment": 1.37}
{"sequence": "LDAGEYCVPRG [BEX1_Y43]", "phosphorylation enrichment": 2.01}
{"sequence": "NKEAIYSGFIR [SMCHD1_Y283_YF]", "phosphorylation enrichment": 1.01}
{"sequence": "IATAIYSGDKI [UGGT2_Y823]", "phosphorylation enrichment": 0.671}
{"sequence": "GPKFGYDEIDN [ACOX1_Y232]", "phosphorylation enrichment": 0.874}
{"sequence": "INSLKYAFNIS [EIF2B5_Y583_YF]", "phosphorylation enrichment": 0.818}
{"sequence": "HSREDYFECFQ [ZIM2_Y411_Q408R]", "phosphorylation enrichment": 1.64}
{"sequence": "PRLMLYNPTTY [EGFR_Y270_P266R]", "phosphorylation enrichment": 1.21}
{"sequence": "FPPTHYIRRVP [SLC4A11_Y820_YF]", "phosphorylation enrichment": 0.87}
{"sequence": "ATVRPYRPYII [LRP5_Y1528_A1525V]", "phosphorylation enrichment": 0.715}
{"sequence": "PLFKICVAELI [MRPL28_Y230_Y230C]", "phosphorylation enrichment": 1.57}
{"sequence": "FEREQYADRTR [RBM4_Y355_A359T_YF]", "phosphorylation enrichment": 0.622}
{"sequence": "PPAPRYHHSAV [LZTR1_Y119]", "phosphorylation enrichment": 1.26}
{"sequence": "TLNHQYDYTFH [CSNK1A1_Y292_D297H]", "phosphorylation enrichment": 0.753}
{"sequence": "KDFNKYVAYIE [KDM4B_Y31]", "phosphorylation enrichment": 0.767}
{"sequence": "SDVDLYQVRTA [PSMD9_Y70]", "phosphorylation enrichment": 0.738}
{"sequence": "DVRQEYSGMIL [PLXND1_Y616_P617S]", "phosphorylation enrichment": 0.891}
{"sequence": "DENWFYTRPAS [RPS19_Y54_A57P]", "phosphorylation enrichment": 1.07}
{"sequence": "HPWPRYTTRAP [FNDC1_Y1281_Q1280R]", "phosphorylation enrichment": 0.907}
{"sequence": "TFGQVYKGPHV [TNIK_Y40_R43P_YF]", "phosphorylation enrichment": 0.751}
{"sequence": "LLVVVYKFRCF [PSEN1_Y154_L153V_YF]", "phosphorylation enrichment": 1.3}
{"sequence": "QQLDEYQELLD [LMNA_Y359]", "phosphorylation enrichment": 1.57}
{"sequence": "RVKTPYSLKRW [BMPR2_Y979]", "phosphorylation enrichment": 1.17}
{"sequence": "ADRTRYSAFGG [RBM4_Y361_A359T]", "phosphorylation enrichment": 0.797}
{"sequence": "ADEEYYEIIAA [FEStide_no-pY_2014]", "phosphorylation enrichment": 1.48}
{"sequence": "TKDTFYKQPMV [GBA_Y451_F456V]", "phosphorylation enrichment": 0.914}
{"sequence": "TENAGYYFRIS", "phosphorylation enrichment": 1.75}
{"sequence": "FHKALYTVRSF [PDE6C_Y266_YF]", "phosphorylation enrichment": 0.942}
{"sequence": "DMLTLYVNTAA [SMCHD1_Y403_Q400L]", "phosphorylation enrichment": 1.36}
{"target": "EPHB1 (UniProt P54762)", "sequence (P54762 whole entry, looked up)": "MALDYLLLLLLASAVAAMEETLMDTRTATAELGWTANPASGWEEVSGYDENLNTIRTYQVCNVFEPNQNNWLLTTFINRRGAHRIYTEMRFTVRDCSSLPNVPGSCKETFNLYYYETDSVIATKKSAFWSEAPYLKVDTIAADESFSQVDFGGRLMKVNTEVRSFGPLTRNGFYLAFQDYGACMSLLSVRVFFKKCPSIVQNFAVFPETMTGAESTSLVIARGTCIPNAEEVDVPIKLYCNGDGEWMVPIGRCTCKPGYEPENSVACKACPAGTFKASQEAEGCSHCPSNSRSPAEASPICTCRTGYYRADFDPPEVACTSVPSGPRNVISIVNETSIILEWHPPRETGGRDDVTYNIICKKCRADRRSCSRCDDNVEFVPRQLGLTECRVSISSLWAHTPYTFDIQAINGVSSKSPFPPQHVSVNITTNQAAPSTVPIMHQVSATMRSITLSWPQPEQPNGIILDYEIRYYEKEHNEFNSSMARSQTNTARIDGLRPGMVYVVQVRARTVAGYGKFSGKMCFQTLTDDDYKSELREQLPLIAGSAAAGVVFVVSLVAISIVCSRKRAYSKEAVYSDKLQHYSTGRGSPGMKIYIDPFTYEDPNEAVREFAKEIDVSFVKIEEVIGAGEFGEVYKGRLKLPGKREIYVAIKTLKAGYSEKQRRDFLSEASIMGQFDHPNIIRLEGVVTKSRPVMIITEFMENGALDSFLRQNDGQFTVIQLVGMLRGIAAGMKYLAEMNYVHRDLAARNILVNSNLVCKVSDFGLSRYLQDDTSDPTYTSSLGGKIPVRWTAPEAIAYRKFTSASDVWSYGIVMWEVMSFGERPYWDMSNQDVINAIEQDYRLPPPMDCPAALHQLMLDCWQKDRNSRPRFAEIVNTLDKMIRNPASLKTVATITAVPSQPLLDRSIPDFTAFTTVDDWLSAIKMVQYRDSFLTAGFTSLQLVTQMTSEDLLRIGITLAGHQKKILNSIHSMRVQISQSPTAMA", "assay": "phosphorylation enrichment, bacterial display (enrichment ratio); higher = better substrate or ligand; peptides without Tyr show the background"}
{"sequence": "EDDIIYTQDFT [STK11_Y362]", "phosphorylation enrichment": 0.869}
{"sequence": "LDAGEYCVPRG [BEX1_Y43]", "phosphorylation enrichment": 3.38}
{"sequence": "NKEAIYSGFIR [SMCHD1_Y283_YF]", "phosphorylation enrichment": 5.18}
{"sequence": "IATAIYSGDKI [UGGT2_Y823]", "phosphorylation enrichment": 0.434}
{"sequence": "GPKFGYDEIDN [ACOX1_Y232]", "phosphorylation enrichment": 0.44}
{"sequence": "INSLKYAFNIS [EIF2B5_Y583_YF]", "phosphorylation enrichment": 0.438}
{"sequence": "HSREDYFECFQ [ZIM2_Y411_Q408R]", "phosphorylation enrichment": 1.83}
{"sequence": "PRLMLYNPTTY [EGFR_Y270_P266R]", "phosphorylation enrichment": 0.889}
{"sequence": "FPPTHYIRRVP [SLC4A11_Y820_YF]", "phosphorylation enrichment": 0.529}
{"sequence": "ATVRPYRPYII [LRP5_Y1528_A1525V]", "phosphorylation enrichment": 0.499}
{"sequence": "PLFKICVAELI [MRPL28_Y230_Y230C]", "phosphorylation enrichment": 1.06}
{"sequence": "FEREQYADRTR [RBM4_Y355_A359T_YF]", "phosphorylation enrichment": 0.398}
{"sequence": "PPAPRYHHSAV [LZTR1_Y119]", "phosphorylation enrichment": 0.432}
{"sequence": "TLNHQYDYTFH [CSNK1A1_Y292_D297H]", "phosphorylation enrichment": 0.772}
{"sequence": "KDFNKYVAYIE [KDM4B_Y31]", "phosphorylation enrichment": 0.461}
{"sequence": "SDVDLYQVRTA [PSMD9_Y70]", "phosphorylation enrichment": 0.555}
{"sequence": "DVRQEYSGMIL [PLXND1_Y616_P617S]", "phosphorylation enrichment": 0.432}
{"sequence": "DENWFYTRPAS [RPS19_Y54_A57P]", "phosphorylation enrichment": 0.59}
{"sequence": "HPWPRYTTRAP [FNDC1_Y1281_Q1280R]", "phosphorylation enrichment": 0.509}
{"sequence": "TFGQVYKGPHV [TNIK_Y40_R43P_YF]", "phosphorylation enrichment": 0.403}
{"sequence": "LLVVVYKFRCF [PSEN1_Y154_L153V_YF]", "phosphorylation enrichment": 0.446}
{"sequence": "QQLDEYQELLD [LMNA_Y359]", "phosphorylation enrichment": 0.776}
{"sequence": "RVKTPYSLKRW [BMPR2_Y979]", "phosphorylation enrichment": 0.608}
{"sequence": "ADRTRYSAFGG [RBM4_Y361_A359T]", "phosphorylation enrichment": 0.345}
{"sequence": "ADEEYYEIIAA [FEStide_no-pY_2014]", "phosphorylation enrichment": 1.02}
{"sequence": "TKDTFYKQPMV [GBA_Y451_F456V]", "phosphorylation enrichment": 0.421}
{"sequence": "TENAGYYFRIS", "phosphorylation enrichment": 0.588}
{"sequence": "FHKALYTVRSF [PDE6C_Y266_YF]", "phosphorylation enrichment": 0.612}
{"sequence": "DMLTLYVNTAA [SMCHD1_Y403_Q400L]", "phosphorylation enrichment": 0.758}
{"target": "FGFR3 (UniProt P22607)", "sequence (P22607 whole entry, looked up)": "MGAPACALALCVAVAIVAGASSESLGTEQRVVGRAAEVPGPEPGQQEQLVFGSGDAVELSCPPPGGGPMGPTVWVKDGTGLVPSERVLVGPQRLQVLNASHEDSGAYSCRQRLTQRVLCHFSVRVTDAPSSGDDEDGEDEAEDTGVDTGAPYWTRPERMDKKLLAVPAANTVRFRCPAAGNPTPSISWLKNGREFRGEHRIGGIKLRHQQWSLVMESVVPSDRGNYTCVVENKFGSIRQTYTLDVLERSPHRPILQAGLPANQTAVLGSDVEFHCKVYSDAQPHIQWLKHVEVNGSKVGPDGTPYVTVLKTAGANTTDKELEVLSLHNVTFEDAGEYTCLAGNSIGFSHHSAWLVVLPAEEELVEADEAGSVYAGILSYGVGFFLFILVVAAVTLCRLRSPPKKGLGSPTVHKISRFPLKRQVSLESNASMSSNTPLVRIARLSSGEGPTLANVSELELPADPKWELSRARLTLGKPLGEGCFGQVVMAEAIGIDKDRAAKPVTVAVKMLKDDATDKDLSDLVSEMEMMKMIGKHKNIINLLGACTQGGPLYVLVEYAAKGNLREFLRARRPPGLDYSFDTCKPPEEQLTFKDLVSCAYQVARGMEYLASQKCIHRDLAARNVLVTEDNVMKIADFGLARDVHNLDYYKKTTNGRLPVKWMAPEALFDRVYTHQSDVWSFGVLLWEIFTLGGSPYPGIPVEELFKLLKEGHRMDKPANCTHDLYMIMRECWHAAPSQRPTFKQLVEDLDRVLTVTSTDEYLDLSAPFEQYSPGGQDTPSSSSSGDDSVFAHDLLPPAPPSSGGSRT", "assay": "phosphorylation enrichment, bacterial display (enrichment ratio); higher = better substrate or ligand; peptides without Tyr show the background"}
{"sequence": "EDDIIYTQDFT [STK11_Y362]", "phosphorylation enrichment": 0.821}
{"sequence": "LDAGEYCVPRG [BEX1_Y43]", "phosphorylation enrichment": 1.73}
{"sequence": "NKEAIYSGFIR [SMCHD1_Y283_YF]", "phosphorylation enrichment": 0.557}
{"sequence": "IATAIYSGDKI [UGGT2_Y823]", "phosphorylation enrichment": 0.482}
{"sequence": "GPKFGYDEIDN [ACOX1_Y232]", "phosphorylation enrichment": 0.527}
{"sequence": "INSLKYAFNIS [EIF2B5_Y583_YF]", "phosphorylation enrichment": 0.567}
{"sequence": "HSREDYFECFQ [ZIM2_Y411_Q408R]", "phosphorylation enrichment": 6.79}
{"sequence": "PRLMLYNPTTY [EGFR_Y270_P266R]", "phosphorylation enrichment": 0.776}
{"sequence": "FPPTHYIRRVP [SLC4A11_Y820_YF]", "phosphorylation enrichment": 0.468}
{"sequence": "ATVRPYRPYII [LRP5_Y1528_A1525V]", "phosphorylation enrichment": 0.591}
{"sequence": "PLFKICVAELI [MRPL28_Y230_Y230C]", "phosphorylation enrichment": 1.14}
{"sequence": "FEREQYADRTR [RBM4_Y355_A359T_YF]", "phosphorylation enrichment": 0.429}
{"sequence": "PPAPRYHHSAV [LZTR1_Y119]", "phosphorylation enrichment": 0.79}
{"sequence": "TLNHQYDYTFH [CSNK1A1_Y292_D297H]", "phosphorylation enrichment": 1.38}
{"sequence": "KDFNKYVAYIE [KDM4B_Y31]", "phosphorylation enrichment": 0.53}
{"sequence": "SDVDLYQVRTA [PSMD9_Y70]", "phosphorylation enrichment": 0.505}
{"sequence": "DVRQEYSGMIL [PLXND1_Y616_P617S]", "phosphorylation enrichment": 0.565}
{"sequence": "DENWFYTRPAS [RPS19_Y54_A57P]", "phosphorylation enrichment": 0.734}
{"sequence": "HPWPRYTTRAP [FNDC1_Y1281_Q1280R]", "phosphorylation enrichment": 0.619}
{"sequence": "TFGQVYKGPHV [TNIK_Y40_R43P_YF]", "phosphorylation enrichment": 0.426}
{"sequence": "LLVVVYKFRCF [PSEN1_Y154_L153V_YF]", "phosphorylation enrichment": 0.676}
{"sequence": "QQLDEYQELLD [LMNA_Y359]", "phosphorylation enrichment": 1.18}
{"sequence": "RVKTPYSLKRW [BMPR2_Y979]", "phosphorylation enrichment": 0.931}
{"sequence": "ADRTRYSAFGG [RBM4_Y361_A359T]", "phosphorylation enrichment": 0.44}
{"sequence": "ADEEYYEIIAA [FEStide_no-pY_2014]", "phosphorylation enrichment": 7.62}
{"sequence": "TKDTFYKQPMV [GBA_Y451_F456V]", "phosphorylation enrichment": 0.512}
{"sequence": "TENAGYYFRIS", "phosphorylation enrichment": 0.816}
{"sequence": "FHKALYTVRSF [PDE6C_Y266_YF]", "phosphorylation enrichment": 0.549}
{"sequence": "DMLTLYVNTAA [SMCHD1_Y403_Q400L]", "phosphorylation enrichment": 0.855}
{"target": "FGFR1 (UniProt P11362)", "sequence (P11362 whole entry, looked up)": "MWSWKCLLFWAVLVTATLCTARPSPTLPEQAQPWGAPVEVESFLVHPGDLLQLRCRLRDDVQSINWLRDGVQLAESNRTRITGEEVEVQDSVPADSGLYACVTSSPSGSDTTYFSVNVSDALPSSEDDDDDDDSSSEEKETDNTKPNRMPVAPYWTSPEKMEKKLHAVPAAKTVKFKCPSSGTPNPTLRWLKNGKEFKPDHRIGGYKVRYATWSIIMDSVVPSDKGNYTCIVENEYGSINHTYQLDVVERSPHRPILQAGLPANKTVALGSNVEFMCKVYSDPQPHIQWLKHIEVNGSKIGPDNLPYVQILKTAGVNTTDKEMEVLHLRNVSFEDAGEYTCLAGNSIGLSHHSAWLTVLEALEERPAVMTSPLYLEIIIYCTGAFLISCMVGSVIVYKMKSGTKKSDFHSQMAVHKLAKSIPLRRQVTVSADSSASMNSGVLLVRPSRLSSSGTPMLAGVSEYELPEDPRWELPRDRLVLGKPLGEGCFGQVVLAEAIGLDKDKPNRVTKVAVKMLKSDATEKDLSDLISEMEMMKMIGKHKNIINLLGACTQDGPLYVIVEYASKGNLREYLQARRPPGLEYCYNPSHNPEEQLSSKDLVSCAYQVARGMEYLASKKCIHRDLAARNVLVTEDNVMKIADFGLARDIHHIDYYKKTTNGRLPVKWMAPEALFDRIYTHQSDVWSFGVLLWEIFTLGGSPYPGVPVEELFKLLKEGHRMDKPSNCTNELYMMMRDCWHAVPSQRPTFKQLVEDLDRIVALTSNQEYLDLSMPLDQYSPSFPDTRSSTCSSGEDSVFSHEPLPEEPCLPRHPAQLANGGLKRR", "assay": "phosphorylation enrichment, bacterial display (enrichment ratio); higher = better substrate or ligand; peptides without Tyr show the background"}
{"sequence": "EDDIIYTQDFT [STK11_Y362]", "phosphorylation enrichment": 0.652}
{"sequence": "LDAGEYCVPRG [BEX1_Y43]", "phosphorylation enrichment": 1.32}
{"sequence": "NKEAIYSGFIR [SMCHD1_Y283_YF]", "phosphorylation enrichment": 0.59}
{"sequence": "IATAIYSGDKI [UGGT2_Y823]", "phosphorylation enrichment": 0.421}
{"sequence": "GPKFGYDEIDN [ACOX1_Y232]", "phosphorylation enrichment": 0.42}
{"sequence": "INSLKYAFNIS [EIF2B5_Y583_YF]", "phosphorylation enrichment": 0.451}
{"sequence": "HSREDYFECFQ [ZIM2_Y411_Q408R]", "phosphorylation enrichment": 9.83}
{"sequence": "PRLMLYNPTTY [EGFR_Y270_P266R]", "phosphorylation enrichment": 0.731}
{"sequence": "FPPTHYIRRVP [SLC4A11_Y820_YF]", "phosphorylation enrichment": 0.437}
{"sequence": "ATVRPYRPYII [LRP5_Y1528_A1525V]", "phosphorylation enrichment": 0.53}
{"sequence": "PLFKICVAELI [MRPL28_Y230_Y230C]", "phosphorylation enrichment": 0.499}
{"sequence": "FEREQYADRTR [RBM4_Y355_A359T_YF]", "phosphorylation enrichment": 0.46}
{"sequence": "PPAPRYHHSAV [LZTR1_Y119]", "phosphorylation enrichment": 0.38}
{"sequence": "TLNHQYDYTFH [CSNK1A1_Y292_D297H]", "phosphorylation enrichment": 2.69}
{"sequence": "KDFNKYVAYIE [KDM4B_Y31]", "phosphorylation enrichment": 0.375}
{"sequence": "SDVDLYQVRTA [PSMD9_Y70]", "phosphorylation enrichment": 0.419}
{"sequence": "DVRQEYSGMIL [PLXND1_Y616_P617S]", "phosphorylation enrichment": 0.504}
{"sequence": "DENWFYTRPAS [RPS19_Y54_A57P]", "phosphorylation enrichment": 0.496}
{"sequence": "HPWPRYTTRAP [FNDC1_Y1281_Q1280R]", "phosphorylation enrichment": 0.515}
{"sequence": "TFGQVYKGPHV [TNIK_Y40_R43P_YF]", "phosphorylation enrichment": 0.47}
{"sequence": "LLVVVYKFRCF [PSEN1_Y154_L153V_YF]", "phosphorylation enrichment": 0.446}
{"sequence": "QQLDEYQELLD [LMNA_Y359]", "phosphorylation enrichment": 0.615}
{"sequence": "RVKTPYSLKRW [BMPR2_Y979]", "phosphorylation enrichment": 0.666}
{"sequence": "ADRTRYSAFGG [RBM4_Y361_A359T]", "phosphorylation enrichment": 0.391}
{"sequence": "ADEEYYEIIAA [FEStide_no-pY_2014]", "phosphorylation enrichment": 9.19}
{"sequence": "TKDTFYKQPMV [GBA_Y451_F456V]", "phosphorylation enrichment": 0.355}
{"sequence": "TENAGYYFRIS", "phosphorylation enrichment": 0.575}
{"sequence": "FHKALYTVRSF [PDE6C_Y266_YF]", "phosphorylation enrichment": 0.462}
{"sequence": "DMLTLYVNTAA [SMCHD1_Y403_Q400L]", "phosphorylation enrichment": 0.569}
